Test results as given in doi:10.1101/794511 (bioRxiv, 2019).

B1: Ascl1 amino acids 92-231 containing the bHLH domain, His-tagged (domain or fragment)
chain: MRCKRRLNFSGFGYSLPQQQPAAVARRNERERNRVKLVNLGFATLREHVPNGAANKKMSKVETLRSAVEYIRALQQLLDEHDAVSAAFQAGVLSPTISPNYSNDLNSMAGSPVSSYSSDEGSYDPLSPEEQELLDFTNWF

Columns and labels:
native gel or EMSA = biological target: the molecule itself; assay: native gel or EMSA
[1] = biological target: B1; assay: native gel or EMSA

binding result [1] | Binder | binding result (native gel or EMSA)
 | B1 | binds
binds | Gsx2^N253A amino acids 167-305 containing the mutated homeodomain, His-tagged (domain or fragment) not shown | 
